Test results: patent US11306156
Like-named read-outs stand apart in the source and are kept apart here.

What was measured:
[1] = target: tissue factor (TF) antigen (UniProt P13726); assay: SPR, His-captured Fab, TF as analyte, 1:1 fit; estimated (*) from a Fab differing only in L chain tag
[2] = target: tissue factor (TF) antigen (UniProt P13726); assay: SPR, His-captured Fab, TF as analyte; against wild-type D3H44 Fab; KD of this row is an estimated (*) value
[3] = target: D3H44 Fab heavy chain L124E_K145M_Q179E; assay: LCCA, SPR of light chain tags; L1:L2 DNA 1:3 normalized to 1:1; competitor m8
[4] = target: D3H44 Fab heavy chain L124R_S186K; assay: as above
[5] = target: D3H44 Fab heavy chain L124R_S186R; assay: as above
[6] = target: D3H44 Fab heavy chain L124R_S186R (H1 of LCCA sets 9516 and 9515)
[7] = target: D3H44 Fab heavy chain L124R_S186R (H1 of LCCA sets 9516 and 9515); remark: listed apart in the source
[8] = target: D3H44 Fab heavy chain L124E_L143D_K145T (H1 of LCCA sets 9214, 9217, 9216, 9219, 9220, 9225, 9228, 9229); assay: LCCA: H1 co-expressed with L1 and L2 (DNA 333:250:749 ng), His-tag capture on SPR chip, light chain tags detected with anti-HA/anti-FLAG; competitor L1 Q124K_V133G_S176R_T178K
[9] = target: D3H44 Fab heavy chain L124E_L143D_K145T, C-terminal ABD2-His6 tag; assay: LCCA co-expression, SPR tag read-out; DNA 1:3 norm. to 1:1; competing light chain m11
[10] = target: D3H44 Fab heavy chain L124E_L143E_K145M, C-terminal ABD2-His6 tag; assay: as above
[11] = target: D3H44 Fab heavy chain L124E_L143E_K145T, C-terminal ABD2-His6 tag; assay: as above
[12] = target: D3H44 Fab heavy chain L124R_Q179K, C-terminal ABD2-His6 tag; assay: as above
[13] = target: D3H44 Fab heavy chain L124E_L143E_K145M, C-terminal ABD2-His6 tag; assay: LCCA co-expression, SPR tag read-out; DNA 1:3 norm. to 1:1; competing light chain m12
[14] = target: D3H44 Fab heavy chain L124E_L143E_K145T, C-terminal ABD2-His6 tag; assay: as above
[15] = target: D3H44 Fab heavy chain L124R_Q179K, C-terminal ABD2-His6 tag; assay: as above
[16] = target: D3H44 Fab heavy chain L124E_L143E_K145T, C-terminal ABD2-His6 tag; assay: LCCA co-expression, SPR tag read-out; DNA 1:3 norm. to 1:1; competing light chain m14
[17] = target: D3H44 Fab heavy chain L124R_Q179K, C-terminal ABD2-His6 tag; assay: as above
[18] = target: D3H44 Fab heavy chain L124E_L143D_K145M, C-terminal ABD2-His6 tag; assay: LCCA (co-expression, SPR read-out of light chain tags), L1:L2 DNA 1:3 normalised to 1:1; competitor m13
[19] = target: D3H44 Fab heavy chain L124R_Q179K, C-terminal ABD2-His6 tag; assay: as above
[20] = target: D3H44 Fab heavy chain L124E_L143D_K145M, C-terminal ABD2-His6 tag; assay: LCCA (co-expression, SPR read-out of light chain tags), L1:L2 DNA 1:3 normalised to 1:1; competitor m14
[21] = target: D3H44 Fab heavy chain L124E_L143D_K145T, C-terminal ABD2-His6 tag; assay: as above
[22] = target: D3H44 Fab heavy chain L124R_Q179K, C-terminal ABD2-His6 tag; assay: as above
[23] = target: D3H44 Fab heavy chain L124E_L143E_K145T, C-terminal ABD2-His6 tag; assay: LCCA set 9271 (co-expression; SPR read-out of light-chain tags; L1:L2 DNA 1:3, normalized to 1:1); competing light chain m17
[24] = target: D3H44 Fab heavy chain L124R_D146N_Q179K, C-terminal ABD2-His6 tag; assay: LCCA set 9350 (co-expression; SPR read-out of light-chain tags; L1:L2 DNA 1:3, normalized to 1:1); competing light chain m17
[25] = target: D3H44 Fab heavy chain L124E_K145T_Q179E; assay: LCCA, SPR of light chain tags; L1:L2 DNA 1:3 normalized to 1:1; competitor m8
[26] = target: D3H44 Fab heavy chain L124E_K145T_Q179E; assay: LCCA, SPR of light chain tags; L1:L2 DNA 1:3 normalized to 1:1; competitor m9
[27] = target: D3H44 Fab heavy chain L124R_S186R; assay: as above
[28] = target: D3H44 Fab heavy chain L124E_L143E_K145M (H1 of LCCA sets 9269, 9266, 9267, 9260, 9262, 9263); assay: LCCA: H1 co-expressed with L1 and L2 (DNA 333:250:749 ng), His-tag capture on SPR chip, light chain tags detected with anti-HA/anti-FLAG; competitor L1 Q124K_V133G_S176R_T178K
[29] = target: D3H44 Fab heavy chain L124E_L143E_K145M (H1 of LCCA sets 9269, 9266, 9267, 9260, 9262, 9263); assay: LCCA: H1 co-expressed with L1 and L2 (DNA 333:250:749 ng), His-tag capture on SPR chip, light chain tags detected with anti-HA/anti-FLAG; competitor L1 Q124K_V133G_S176R_T178R
[30] = target: D3H44 Fab heavy chain L124R_D146N_Q179K; assay: LCCA, SPR of light chain tags; L1:L2 DNA 1:3 normalized to 1:1; competitor m8
[31] = target: D3H44 Fab heavy chain L124R_Q179K; assay: as above
[32] = target: D3H44 Fab heavy chain L124R_D146N_Q179K; assay: LCCA, SPR of light chain tags; L1:L2 DNA 1:3 normalized to 1:1; competitor m9
[33] = target: D3H44 Fab heavy chain L124E_L143E_K145T; assay: LCCA, SPR of light chain tags; L1:L2 DNA 1:3 normalized to 1:1; competitor m10
[34] = target: D3H44 Fab heavy chain L124R_S186K; assay: as above
[35] = target: D3H44 Fab heavy chain L124R_D146N_Q179K (H1 of LCCA sets 9358, 9359, 9357, 9351, 9352, 9353, 9354, 9350); assay: LCCA: H1 co-expressed with L1 and L2 (DNA 333:250:749 ng), His-tag capture on SPR chip, light chain tags detected with anti-HA/anti-FLAG; competitor L2 Q124K_V133G_Q160K_S176R

## D3H44 Fab heterodimer H1L1 of LCCA Set # 9104 (H1 L124E; L1 S131T_V133G_S176R_T178Y)
[1]
  Kd: 0.16 nM
[2]
  Change in median values of KD compared to wild type (-(log(KD design)-log(KD wt))): -0.01 log

## D3H44 light chain Q124E_V133G_S176D_T178D_T180E
[3]
  H1L1:H1L2 normalized median ratio (% of heavy chain paired): 8
[4]
  H2L2:H2L1 normalized median ratio (% of heavy chain paired): 92
[5]
  H2L2:H2L1 normalized median ratio (% of heavy chain paired): 92
[6]
  median LCCA performance normalized to a L1:L2 DNA ratio of 1:1 (ratio H1-L1:H1-L2), H1-L1 share (ratio part of 100): 95
[7]
  median LCCA performance normalized to a L1:L2 DNA ratio of 1:1 (ratio H1-L1:H1-L2), H1-L1 share (ratio part of 100): 94
[8]
  median LCCA performance normalized to a L1:L2 DNA ratio of 1:1 (ratio H1-L1:H1-L2), H1-L2 share (ratio part of 100): 15

## D3H44 light chain Q124K_V133G_Q160K_S176R, N-terminal HA or FLAG tag
[9]
  H1L1:H1L2 normalized median ratio (% (ratio normalized to 100)): 94
  H1L1:H1L2 normalized median scalar value ln(r1/f1): 2.69
[10]
  H1L1:H1L2 normalized median ratio (% (ratio normalized to 100)): 94
  H1L1:H1L2 normalized median scalar value ln(r1/f1): 2.72
[11]
  H1L1:H1L2 normalized median ratio (% (ratio normalized to 100)): 95
  H1L1:H1L2 normalized median scalar value ln(r1/f1): 3
[12]
  H2L2:H2L1 normalized median ratio (% (ratio normalized to 100)): 8
[13]
  H1L1:H1L2 normalized median ratio (% (ratio normalized to 100)): 92
[14]
  H1L1:H1L2 normalized median ratio (% (ratio normalized to 100)): 95
  H1L1:H1L2 normalized median scalar value ln(r1/f1): 2.92
[15]
  H2L2:H2L1 normalized median ratio (% (ratio normalized to 100)): 8
[16]
  H1L1:H1L2 normalized median ratio (% (ratio normalized to 100)): 94
[17]
  H2L2:H2L1 normalized median ratio (% (ratio normalized to 100)): 10
[18]
  H1L1:H1L2 normalized median ratio: 91%
  H1L1:H1L2 normalized median scalar value ln(r1/f1): 2.36
[19]
  H2L2:H2L1 normalized median ratio: 8%
[20]
  H1L1:H1L2 normalized median ratio: 92%
[21]
  H1L1:H1L2 normalized median ratio: 92%
[22]
  H2L2:H2L1 normalized median ratio: 8%
[23]
  H1L1:H1L2 normalized median ratio (H1L1 part): 95%
  H1L1:H1L2 normalized median scalar value ln(r1/f1): 2.92
[24]
  H2L2:H2L1 normalized median ratio (H2L1 part): 18%

## D3H44 light chain V133G_S176D_T178D_T180E
[3]
  H1L1:H1L2 normalized median ratio (% of heavy chain paired): 6
[25]
  H1L1:H1L2 normalized median ratio (% of heavy chain paired): 5
[5]
  H2L2:H2L1 normalized median ratio (% of heavy chain paired): 88
[26]
  H1L1:H1L2 normalized median ratio (% of heavy chain paired): 4
[27]
  H2L2:H2L1 normalized median ratio (% of heavy chain paired): 85
[8]
  median LCCA performance normalized to a L1:L2 DNA ratio of 1:1 (ratio H1-L1:H1-L2), H1-L2 share (ratio part of 100): 18
[28]
  median LCCA performance normalized to a L1:L2 DNA ratio of 1:1 (ratio H1-L1:H1-L2), H1-L2 share (ratio part of 100): 37
[29]
  median LCCA performance normalized to a L1:L2 DNA ratio of 1:1 (ratio H1-L1:H1-L2), H1-L2 share (ratio part of 100): 38

## D3H44 light chain V133G_S176D_T178E_T180E
[3]
  H1L1:H1L2 normalized median ratio (% of heavy chain paired): 8
[25]
  H1L1:H1L2 normalized median ratio (% of heavy chain paired): 5
[30]
  H2L2:H2L1 normalized median ratio (% of heavy chain paired): 83
[31]
  H2L2:H2L1 normalized median ratio (% of heavy chain paired): 93
[26]
  H1L1:H1L2 normalized median ratio (% of heavy chain paired): 3
[32]
  H2L2:H2L1 normalized median ratio (% of heavy chain paired): 80
[33]
  H1L1:H1L2 normalized median ratio (% of heavy chain paired): 5
[34]
  H2L2:H2L1 normalized median ratio (% of heavy chain paired): 92
[35]
  median LCCA performance normalized to a L1:L2 DNA ratio of 1:1 (ratio H1-L1:H1-L2), H1-L1 share (ratio part of 100): 74
